From the DeepSol protein solubility set

test: soluble on expression in E. coli; label from the status in PepcDB or PDB records

Soluble on expression in E. coli, not soluble:
MTNQLPKISEAELEIMKVLWLKSPQTANEIIEELEDPMDWKPKTIRTLINRLVQKEAVSYHQDKGRMYAYYPLVSQDNYLQVETKSLLKRFCGAAFKPLLVNFLKEEKLSSEDINELKRLLDEKTEENKRKD
MGSDKIHHHHHHMAHENVIEMRDITKVFGGFVANDKINLHLRKGEIHALLGENGAGKSTLMNMLAGLLEPTSGEIAVNGQVVNLDSPSKAASLGIGMVHQHFMLVEAFTVAENIILGSELTKNGVLDIAGASKEIKALSERYGLAVDPSAKVADISVGAQQRVEILKTLYRGADILIFDEPTAVLTPSEIDELMAIMKNLVKEGKSIILITHKLDEIRAVSDRVTVIRRGKSIETVEIAGATNADLAEMMVGRSVSFKTEKQASKPKEVVLSIKDLVVNENRGVPAVKNLSLDVRAGEIVGIAGIDGNGQSELIQAITGLRKVESGSIELKGDSIVGLHPRQITELSVGHVPEDRHRDGLILEMMISENIALQTYYKEPHSKNGILNYSNITSYAKKLMEEFDVRAASELVPAAALSGGNQQKAIIAREIDRDPDLLIVSQPTRGLDVGAIEYIHKRLIEERDNGKAVLVVSFELDEILNVSDRIAVIHDGKIQGIVSPETTNKQELGVLMAGGNLGKEKSDV
MGSDKIHHHHHHMKEKVFRDPVHNYIPVEDELIYDLINSKEFQRLRRIKQLGSSSFTFHGAEHSRFSHCLGVYYLARRVTNIFDKKYSDIWNSNESLLTMTAALLHDIGHGAYSHTFERLFDTNHETITQQIILSPETEINTILRRVSPDFPDKVASVINHTYSNKQVEQLISSQIDVDRMDYLLRDSYFTGASYGEFDLTRVLRVIRPIENGIAFSRDGMHAVEDYIISRYQMYMQVYFHPASRAMEVLLQNLLKRAKYLYPKEKEFFTVTSPHLIPFFENRVTLEDYLSLDDGVMNTYFQTWMQSADKILSDLASRFINRKVFKSITFDEKDLSNLEKLRKIVKDLGFDPTYYTALHLNFDLPYDVYKPDVQNPRTQIEMLQEDGSIAELSTLSPLVHTLSGTTHGDRRFYFPKEMLIKDGLFVEAKEKFSHYIKNKHFYNLRE

Soluble on expression in E. coli, soluble:
MPKRAVSFADDIETRVFKRDKREIEDGILDIPMEEDVVKERPGNADEDEEEKKKFHTLESDEEEEEDHKRLDTRRVEGQEDCGVDFDGSIKITAFNMKEDEEEGHFDETGNFIFDKKTKDVQDAWLDGIDWSLVKKKAGDQWEGDEDKKSLEDEEPEPITMSDARKKEIFEQLVNLLKPNQTVAKALSELKKKKGLSAAEERKLRWAAKKAGKSFEPTDGQKETSQLSGLADELISAGIMDAYEWHREKFNFQLQKMISTAADELDMFSDEPTSTGAARAAGAPMEQEEEEADDSVKWEYKANEEAKIEVEYEKTDDFGEIRVNKIGPIPTSEMMDRQSKGLLSAEGVARRSGTNGHFNPVARIDFELYL
MSSNECFKCGRSGHWARECPTGGGRGRGMRSRGRGGFTSDRGFQFVSSSLPDICYRCGESGHLAKDCDLQEDACYNCGRGGHIAKDCKEPKREREQCCYNCGKPGHLARDCDHADEQKCYSCGEFGHIQKDCTKVKCYRCGETGHVAINCSKTSEVNCYRCGESGHLARECTIEATA
SLILHAQAKHGKPGLPWLVFLHGFSGDCHEWQEVGEAFADYSRLYVDLPGHGGSAAISVDGFDDVTDLLRKTLVSYNILDFWLVGYSLGGRVAMMAACQGLAGLCGVIVEGGHPGLQNAEQRAERQRSDRQWVQRFLTEPLTAVFADWYQQPVFASLNDDQRRELVALRSNNNGATLAAMLEATSLAVQPDLRANLSARTFAFYYLCGERDSKFRALAAELAADCHVIPRAGHNAHRENPAGVIASLAQILRF
MNKGRIIQVMGPVVDIQFESGQLPDIYNAITIERPQGGTLTVEAAVHLGDNVVRCVAMASTDGLVRGLEAVDTGAPISVPVGKATLGRVFNVLGEPIDEQGEVNAEERHPIHRPAPEFEELSTADEILETGIKVIDLLAPYAKGGKIGLFGGAGVGKTVLIQELINNVAQEHGGLSVFAGVGERTREGNDLYHEMKDSGVISKTSMVFGQMNEPPGARLRVALTGLTMAEYFRDREGQDVLLFIDNIFRFTQAGSEVSALLGRMPSAVGYQPTLATEMGQLQERITSTKKGSITSIQAIYVPADDYTDPAPATTFAHLDATTNLERKLAEMGIYPAVDPLASTSRILSPAVVGEEHYRVARGVQQVLQRYNDLQDIIAILGMDELSDEDKLIVARARKIQRFLSQPFHVAEQFTGMPGKYVPVKETVRGFKEILEGKHDNLPEEAFYMVGTIDEAVEKAKKL
